Test results taken from article PMC2120665.

Molecular target: anti-SKL-reactive polypeptides
Assay: co-IP

B1: Pay32p (natural protein)
chain: MSFMRGGSECSTGRNPLSQFTKHTAEDRSLQHDRVAGPSGGRVGGMRSNTGEMSQQDREMMARFGAAGPEQSSFNYEQMRHELHNMGAQGGQIPQVPSQQGAANGGQWARDFGGQQTAPGAAPQDAKNWNAEFQRGGSPAEAMQQQGPGPMQGGMGMGGMPMYGMARPMYSGMSANMAPQFQPQQANARVVELDEQNWEEQFKQMDSAVGKGKEVEEQTAETATATETVTETETTTEDKPMDIKNMDFENIWKNLQVNVLDNMDEWLEETNSPAWERDFHEYTHNRPEFADYQFEENNQFMEHPDPFKIGVELMETGGRLSEAALAFEAAVQKNTEHAEAWGRLGACQAQNEKEDPAIRALERCIKLEPGNLSALMNLSVSYTNEGYENAAYATLERWLATKYPEVVDQARNQEPRLGNEDKFQLHSRVTELFIRAAQLSPDGANIDADVQVGLGVLFYGNEEYDKAIDCFNAAIAVRPDDALLWNRLGATLANSHRSEEAIDAYYKALELRPSFVRARYNLGVSCINIGCYKEAAQYLLGALSMHKVEGVQDDVLANQSTNLYDTLKRVFLGMDRRDLVAKVGNGMDVNQFRNEFEF
For B1, which percent of Pay32p present in the complex is on record?
The percent of Pay32p present in the complex was 84.6%.
